Patent publication US20210163622A1 (FATE THERAPEUTICS, published 2021)

Molecular target: T1, human MICA on target cells (human, UniProt Q29983 24-383)
T1 sequence (looked up): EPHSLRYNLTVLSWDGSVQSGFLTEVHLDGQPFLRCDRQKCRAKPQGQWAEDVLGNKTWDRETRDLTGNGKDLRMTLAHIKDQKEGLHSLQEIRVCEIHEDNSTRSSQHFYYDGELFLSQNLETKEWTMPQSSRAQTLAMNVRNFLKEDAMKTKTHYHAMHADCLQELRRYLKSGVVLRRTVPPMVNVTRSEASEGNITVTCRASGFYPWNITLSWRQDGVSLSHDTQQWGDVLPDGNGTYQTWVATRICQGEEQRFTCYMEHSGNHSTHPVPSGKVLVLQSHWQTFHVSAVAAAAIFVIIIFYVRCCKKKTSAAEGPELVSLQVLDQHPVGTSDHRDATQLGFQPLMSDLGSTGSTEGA
Test: cell-based or functional assay

B1: MICA/B CAR (chimeric antigen receptor with a MICA/B-binding scFV; version not stated at the assay) (scFv, V domains shown)
VH: QIQLVQSGPELKKPGETVKVSCKASGYMFTNYAMNWVKQAPEKGLKWMGWINTHTGDPTYADDFKGRIAFSLETSASTAYLQINNLKNEDTATYFCVRTYGNYAMDYWGQGTSVTVSS
VL: DIQMTQTTSSLSASLGDRVTISCSASQDISNYLNWYQQKPDGTVKLLIYDTSILHLGVPSRFSGSGSGTDYSLTISNLEPEDIATYYCQQYSKFPRTFGGGTTLEIK
cytotoxicity of MICA/B CAR+ T cells against MICA+ Nalm6 cells, % Caspase 3/7+ target cells over E:T ratio, 4 h (EC50): ~1.9 | cytotoxicity of MICA/B CAR+ iNK cells against P815 MICA+ cells, % Caspase 3/7+ target cells over E:T ratio, 4 h (EC50): ~5.2
